Experimental data: paper PMC8836243
Where two headings read alike, the source gives them in different places.

Experiments:
Human CCR7 WT (human) [1] = target: Human CCR7 WT (human) (UniProt P32248)
Human CCR7 WT (human) [2] = target: Human CCR7 WT (human) (UniProt P32248); remark: listed apart in the source

Sequence of UniProt P32248 (P32248 25-378): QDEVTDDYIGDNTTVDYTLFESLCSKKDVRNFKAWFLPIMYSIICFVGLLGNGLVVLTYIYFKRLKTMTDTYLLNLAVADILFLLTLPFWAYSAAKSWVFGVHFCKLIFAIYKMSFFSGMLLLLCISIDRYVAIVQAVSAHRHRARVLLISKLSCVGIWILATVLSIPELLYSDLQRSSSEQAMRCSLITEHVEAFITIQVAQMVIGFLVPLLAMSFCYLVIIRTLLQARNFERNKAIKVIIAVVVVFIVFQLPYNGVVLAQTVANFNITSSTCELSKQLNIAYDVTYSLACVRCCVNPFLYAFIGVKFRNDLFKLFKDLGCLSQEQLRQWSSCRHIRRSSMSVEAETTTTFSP

increase in potency in Gαi signalling (BRET) with 10 μM long C21TP (CCL21 81-111) added (Human CCR7 WT (human) [1]) [fold]	increase in potency in Gαi signalling (BRET) with 10 μM short C21TP (CCL21 89-106) added (Human CCR7 WT (human) [1]) [fold]	increase in potency in Gαi signalling (BRET) with 10 μM long C21TP (CCL21 81-111) added (Human CCR7 WT (human) [2]) [fold]	increase in potency in Gαi signalling (BRET) with 10 μM short C21TP (CCL21 89-106) added (Human CCR7 WT (human) [2]) [fold]	potency in Gαi signalling (BRET), against WT CCL19 (Human CCR7 WT (human) [2]) [fold]	Substance
19.7	16.6				CCL21 1-91 C80A (from UniProt O00585 24-114) (ligand)
		3	3.5	22	CCL19 K71A K73A R74A R75A (CCL19 AMAAA^71-75) (ligand)
